# Paper PMC5818423
# B1: Human wild-type adenosine deaminase (ADA) [human] / A2AR-Nluc-spacer (human adenosine receptor fused to NanoLuc on the N-terminal end, with spacer) [human] (parent)
# chain 1: MAQTPAFDKPKVELHVHLDGSIKPETILYYGRRRGIALPANTAEGLLNVIGMDKPLTLPDFLAKFDYYMPAIAGCREAIKRIAYEFVEMKAKEGVVYVEVRYSPHLLANSKVEPIPWNQAEGDLTPDEVVALVGQGLQEGERDFGVKARSILCCMRHQPNWSPKVVELCKKYQQQTVVAIDLAGDETIPGSSLLPGHVQAYQEAVKSGIHRTVHAGEVGSAEVVKEAVDILKTERLGHGYHTLEDQALYNRLRQENMHFEICPWSSYLTGAWKPDTEHAVIRLKNDQANYSLNTDDPLIFKSTLDTDYQMTKRDMGFTEEEFKRLNINAAKSSFLPEDEKRELLDLLYKAYGMPPSASAGQNL
# chain 2: MPIMGSSVYITVELAIAVLAILGNVLVCWAVWLNSNLQNVTNYFVVSLAAADIAVGVLAIPFAITISTGFCAACHGCLFIACFVLVLTQSSIFSLLAIAIDRYIAIRIPLRYNGLVTGTRAKGIIAICWVLSFAIGLTPMLGWNNCGQPKEGKNHSQGCGEGQVACLFEDVVPMNYMVYFNFFACVLVPLLLMLGVYLRIFLAARRQLKQMESQPLPGERARSTLQKEVHAAKSLAIIVGLFALCWLPLHIINCFTFFCPDCSHAPLWLMYLAIVLSHTNSVVNPFIYAYRIREFRQTFRKIIRSHVLRQQEPFKAAGTSARVLAAHGSDGEQVSLRLNGHPPGVWANGSAPHPERRPNGYALGLVSGGSAQESQGNTGLPDVELLSHELKGVCPEPPGLDDPLAQDGAGVS
# Variants of: B1
# Test: NanoBRET between mixed cells (A2AR-Nluc-spacer cells + CD26-YFP cells bridged by ADA)
# Conditions: ADA at 1 μg/ml, 10 min incubation in HBSS without shaking, HEK-293T cells, untreated (0) control est. 4.6 mBU, parent: 35, read off a plot
row,response,Variant
1,7.3 mBU,chain 1 L58A
2,6.7 mBU,chain 1 L62A
